Laboratory results taken from the supplement of paper PMC10065799, “High-throughput profiling of sequence recognition by tyrosine kinases and SH2 domains using bacterial peptide display” (eLife, 2023).

Assays:
[1] = molecular target: SHP2-C SH2; test: SH2 binding enrichment of the phosphorylated peptide, bacterial display (enrichment ratio); higher = better substrate or ligand; peptides without Tyr show the background
[2] = molecular target: Grb2 SH2 (UniProt P62993); test: as above
[3] = molecular target: c-Src SH2; test: as above
[4] = test system: c-Src; test: phosphorylation enrichment, bacterial display (enrichment ratio); higher = better substrate or ligand; peptides without Tyr show the background
[5] = molecular target: FGFR3 (UniProt P22607); test: as above
Chain of FGFR3 (P22607 whole entry, looked up): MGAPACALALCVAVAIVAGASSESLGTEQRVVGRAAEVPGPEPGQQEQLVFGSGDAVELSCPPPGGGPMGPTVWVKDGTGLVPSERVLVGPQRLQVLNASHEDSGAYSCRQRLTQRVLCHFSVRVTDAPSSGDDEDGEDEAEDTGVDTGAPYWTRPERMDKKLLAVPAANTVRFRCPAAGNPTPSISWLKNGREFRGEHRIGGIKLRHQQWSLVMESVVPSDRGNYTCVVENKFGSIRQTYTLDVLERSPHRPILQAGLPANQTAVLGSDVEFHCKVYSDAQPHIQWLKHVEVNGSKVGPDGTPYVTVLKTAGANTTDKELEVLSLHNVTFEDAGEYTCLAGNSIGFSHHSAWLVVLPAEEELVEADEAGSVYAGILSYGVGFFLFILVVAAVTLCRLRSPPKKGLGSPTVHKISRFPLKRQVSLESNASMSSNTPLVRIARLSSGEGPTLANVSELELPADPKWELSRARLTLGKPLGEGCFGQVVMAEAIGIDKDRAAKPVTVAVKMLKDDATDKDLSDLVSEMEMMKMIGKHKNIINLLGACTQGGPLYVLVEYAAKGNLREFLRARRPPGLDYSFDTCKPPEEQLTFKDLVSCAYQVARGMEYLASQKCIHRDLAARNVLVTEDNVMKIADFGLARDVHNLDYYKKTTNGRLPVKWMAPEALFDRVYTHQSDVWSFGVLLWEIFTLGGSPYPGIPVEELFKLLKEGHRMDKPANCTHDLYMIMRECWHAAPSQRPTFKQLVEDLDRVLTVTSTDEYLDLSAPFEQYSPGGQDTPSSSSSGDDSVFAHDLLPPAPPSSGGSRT

[6] = test system: Fer (mouse); test: as above
[7] = test system: c-Abl (mouse); test: as above
[8] = molecular target: EPHB2 (UniProt P29323); test: as above
[9] = molecular target: Fes (UniProt P07332); test: as above
Chain of Fes (P07332 whole entry, looked up): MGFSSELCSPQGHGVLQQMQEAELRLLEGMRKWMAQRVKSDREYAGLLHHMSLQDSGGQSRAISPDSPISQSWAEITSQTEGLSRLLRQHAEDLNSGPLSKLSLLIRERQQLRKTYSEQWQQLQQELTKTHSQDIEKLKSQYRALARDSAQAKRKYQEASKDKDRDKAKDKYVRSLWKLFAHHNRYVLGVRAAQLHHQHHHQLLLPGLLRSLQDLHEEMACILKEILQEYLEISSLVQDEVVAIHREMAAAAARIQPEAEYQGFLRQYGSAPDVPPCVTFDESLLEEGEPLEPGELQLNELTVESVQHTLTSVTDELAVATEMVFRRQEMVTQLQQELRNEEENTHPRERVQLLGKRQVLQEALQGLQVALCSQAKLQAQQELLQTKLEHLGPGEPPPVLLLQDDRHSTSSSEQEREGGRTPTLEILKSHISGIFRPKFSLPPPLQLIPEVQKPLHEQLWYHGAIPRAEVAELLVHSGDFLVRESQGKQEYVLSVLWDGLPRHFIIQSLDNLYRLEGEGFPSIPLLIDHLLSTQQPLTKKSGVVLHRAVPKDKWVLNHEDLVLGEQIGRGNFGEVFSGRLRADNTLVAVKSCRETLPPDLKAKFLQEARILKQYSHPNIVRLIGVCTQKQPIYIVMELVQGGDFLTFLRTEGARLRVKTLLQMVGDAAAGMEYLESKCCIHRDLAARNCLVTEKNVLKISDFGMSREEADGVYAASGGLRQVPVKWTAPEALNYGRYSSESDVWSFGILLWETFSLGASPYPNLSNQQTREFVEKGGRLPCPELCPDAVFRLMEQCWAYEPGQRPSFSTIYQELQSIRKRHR

[10] = molecular target: MERTK (UniProt Q12866); test: as above
Chain of MERTK (Q12866 whole entry, looked up): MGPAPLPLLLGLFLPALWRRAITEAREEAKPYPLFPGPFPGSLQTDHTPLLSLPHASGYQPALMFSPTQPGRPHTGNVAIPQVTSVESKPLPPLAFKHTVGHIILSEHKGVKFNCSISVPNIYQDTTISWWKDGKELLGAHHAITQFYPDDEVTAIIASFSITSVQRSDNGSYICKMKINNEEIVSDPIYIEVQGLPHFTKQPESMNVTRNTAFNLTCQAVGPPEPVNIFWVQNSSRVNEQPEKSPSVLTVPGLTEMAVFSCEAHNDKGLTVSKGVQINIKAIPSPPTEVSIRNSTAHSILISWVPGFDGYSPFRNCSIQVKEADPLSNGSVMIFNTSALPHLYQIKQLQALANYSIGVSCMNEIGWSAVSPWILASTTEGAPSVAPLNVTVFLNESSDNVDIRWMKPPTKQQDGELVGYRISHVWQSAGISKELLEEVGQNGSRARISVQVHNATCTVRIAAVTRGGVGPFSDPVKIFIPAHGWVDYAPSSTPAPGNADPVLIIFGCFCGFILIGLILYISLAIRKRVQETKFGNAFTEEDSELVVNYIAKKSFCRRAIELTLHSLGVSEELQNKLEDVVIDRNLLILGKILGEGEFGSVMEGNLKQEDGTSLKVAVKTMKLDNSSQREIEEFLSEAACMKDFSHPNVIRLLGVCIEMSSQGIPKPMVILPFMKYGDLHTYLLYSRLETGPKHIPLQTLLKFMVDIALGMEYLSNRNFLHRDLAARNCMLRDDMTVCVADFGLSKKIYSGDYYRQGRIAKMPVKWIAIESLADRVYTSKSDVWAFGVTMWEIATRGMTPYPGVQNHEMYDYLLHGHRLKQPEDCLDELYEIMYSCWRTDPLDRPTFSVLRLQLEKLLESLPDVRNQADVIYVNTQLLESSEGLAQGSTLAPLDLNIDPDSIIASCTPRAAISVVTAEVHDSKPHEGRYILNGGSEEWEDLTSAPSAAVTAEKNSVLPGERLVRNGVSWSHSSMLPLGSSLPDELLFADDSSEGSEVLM

[11] = test system: AncSZ; test: as above
[12] = molecular target: EPHB1 (UniProt P54762); test: as above
Chain of EPHB1 (P54762 whole entry, looked up): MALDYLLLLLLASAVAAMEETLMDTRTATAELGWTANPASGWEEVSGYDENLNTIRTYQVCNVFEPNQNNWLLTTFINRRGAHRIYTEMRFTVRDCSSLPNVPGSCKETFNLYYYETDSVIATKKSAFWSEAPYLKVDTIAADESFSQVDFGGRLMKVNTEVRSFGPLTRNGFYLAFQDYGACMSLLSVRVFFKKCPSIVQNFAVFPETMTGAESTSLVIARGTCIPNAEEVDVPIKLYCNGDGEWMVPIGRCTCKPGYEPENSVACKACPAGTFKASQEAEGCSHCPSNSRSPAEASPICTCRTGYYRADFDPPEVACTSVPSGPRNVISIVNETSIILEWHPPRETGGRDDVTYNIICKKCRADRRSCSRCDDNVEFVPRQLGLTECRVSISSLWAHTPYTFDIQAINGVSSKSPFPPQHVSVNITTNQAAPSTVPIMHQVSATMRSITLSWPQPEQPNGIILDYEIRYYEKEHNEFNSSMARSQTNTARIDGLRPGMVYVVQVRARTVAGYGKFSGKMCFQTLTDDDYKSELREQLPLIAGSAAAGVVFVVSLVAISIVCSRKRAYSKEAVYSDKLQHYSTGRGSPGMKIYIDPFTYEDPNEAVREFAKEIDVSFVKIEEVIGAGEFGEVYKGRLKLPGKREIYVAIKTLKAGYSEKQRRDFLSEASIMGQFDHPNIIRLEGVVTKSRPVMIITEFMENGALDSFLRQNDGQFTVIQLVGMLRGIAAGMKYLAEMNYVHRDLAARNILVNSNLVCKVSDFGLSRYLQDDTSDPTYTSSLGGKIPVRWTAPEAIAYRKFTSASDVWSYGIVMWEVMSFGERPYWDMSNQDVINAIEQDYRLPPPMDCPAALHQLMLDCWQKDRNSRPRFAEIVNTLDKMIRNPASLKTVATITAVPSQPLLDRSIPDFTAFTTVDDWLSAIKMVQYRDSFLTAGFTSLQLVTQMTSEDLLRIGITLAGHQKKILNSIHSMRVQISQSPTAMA

[13] = molecular target: Jak2 (UniProt O60674); test: as above
[14] = molecular target: Hck (UniProt P08631); test: as above
Chain of Hck (P08631 whole entry, looked up): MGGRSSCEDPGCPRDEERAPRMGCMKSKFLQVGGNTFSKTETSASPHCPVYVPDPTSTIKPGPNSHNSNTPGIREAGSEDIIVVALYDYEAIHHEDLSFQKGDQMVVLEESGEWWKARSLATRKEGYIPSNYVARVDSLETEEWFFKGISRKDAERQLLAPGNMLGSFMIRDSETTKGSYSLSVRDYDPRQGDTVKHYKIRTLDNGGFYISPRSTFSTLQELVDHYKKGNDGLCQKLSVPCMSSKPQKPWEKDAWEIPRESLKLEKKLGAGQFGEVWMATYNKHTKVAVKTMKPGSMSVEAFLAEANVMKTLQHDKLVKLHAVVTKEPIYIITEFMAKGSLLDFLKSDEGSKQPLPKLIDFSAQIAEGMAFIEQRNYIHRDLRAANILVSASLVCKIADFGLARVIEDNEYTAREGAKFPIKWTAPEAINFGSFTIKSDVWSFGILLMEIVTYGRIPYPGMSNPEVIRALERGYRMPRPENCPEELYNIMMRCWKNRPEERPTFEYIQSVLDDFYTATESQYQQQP

[15] = molecular target: Fyn (UniProt P06241); test: as above
Chain of Fyn (P06241 whole entry, looked up): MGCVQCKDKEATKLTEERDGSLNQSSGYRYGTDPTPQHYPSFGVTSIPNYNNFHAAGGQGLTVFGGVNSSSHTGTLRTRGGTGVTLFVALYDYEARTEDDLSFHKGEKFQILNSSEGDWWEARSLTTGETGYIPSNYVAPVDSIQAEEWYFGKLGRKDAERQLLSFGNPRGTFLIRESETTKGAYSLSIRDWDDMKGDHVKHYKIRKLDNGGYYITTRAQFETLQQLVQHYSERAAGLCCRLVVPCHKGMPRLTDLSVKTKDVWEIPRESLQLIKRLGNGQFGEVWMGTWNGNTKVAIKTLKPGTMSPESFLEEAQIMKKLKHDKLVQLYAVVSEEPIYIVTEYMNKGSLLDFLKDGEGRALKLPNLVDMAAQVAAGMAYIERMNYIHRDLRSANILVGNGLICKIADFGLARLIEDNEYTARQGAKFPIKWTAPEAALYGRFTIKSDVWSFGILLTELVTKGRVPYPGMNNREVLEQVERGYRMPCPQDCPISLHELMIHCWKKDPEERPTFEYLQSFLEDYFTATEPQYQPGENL

[16] = molecular target: FGFR1 (UniProt P11362); test: as above
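Throughout, for SH2 binding enrichment of the phosphorylated peptide, bacterial display: peptide library displayed on the E. coli surface as eCPX fusions, selected cells deep-sequenced, score is each peptide's frequency after selection divided by its frequency in the input.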
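Throughout, for phosphorylation enrichment, bacterial display: 11-residue human phosphosite peptides and single-mutation variants displayed on the E. coli surface, counted by deep sequencing, each peptide's frequency after selection divided by its frequency in the unselected input library; frequency after pTyr selection over input frequency; kinase dosed for 20-30% of maximal phosphorylation in three min.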

Chain of Grb2 SH2 (P62993 whole entry, looked up): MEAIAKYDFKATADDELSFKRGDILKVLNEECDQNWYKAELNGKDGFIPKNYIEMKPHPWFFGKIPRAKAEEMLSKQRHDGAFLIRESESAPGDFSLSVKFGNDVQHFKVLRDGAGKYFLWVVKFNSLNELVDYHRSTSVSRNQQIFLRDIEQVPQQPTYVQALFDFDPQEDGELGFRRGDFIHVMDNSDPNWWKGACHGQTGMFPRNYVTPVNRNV

Sequence	SH2 binding enrichment [1]	SH2 binding enrichment [2]	SH2 binding enrichment [3]	phosphorylation enrichment [4]	phosphorylation enrichment [5]	phosphorylation enrichment [6]	phosphorylation enrichment [7]	phosphorylation enrichment [8]	phosphorylation enrichment [9]	phosphorylation enrichment [10]	phosphorylation enrichment [11]	phosphorylation enrichment [12]	phosphorylation enrichment [13]	phosphorylation enrichment [14]	phosphorylation enrichment [15]	phosphorylation enrichment [16]
LVRAFYCERRR [CARD11_Y970]	0.449	0.383	0.243	0.988	0.585	0.624	0.597	1.71	0.713	0.902	0.684	0.62	0.705	1.14	0.844	0.766
LVRPPYSFLAL [FOXI1_Y126_S129L_YF]	0.842	0.713	0.547	0.525	0.866	1.22	0.526	0.523	0.787	1.05	0.683	0.584	0.71	0.727	0.525	1.07
MDFRSYPHEFG [RBM10_Y44_R46H_YF]	0.766	0.88	0.624	0.317	0.526	0.354	0.465	0.402	0.69	0.366	0.64	0.434	0.536	0.335	0.397	0.464
MDYRSYPHEYG [RBM10_Y44_R46H]	0.724	0.647	0.494	0.518	0.632	0.404	0.561	0.551	0.854	0.486	0.832	0.542	0.682	0.484	0.419	0.602
MEYAKYGSLRG [RET_Y809_V804M]	0.607	0.703	0.484	1.9	0.458	0.431	0.474	0.465	0.605	0.436	0.622	0.569	0.536	1.29	1.14	0.461
MFKPMYALFRT [HUWE1_Y4078_N4075K]	1.86	1.35	1.52	1.75	0.698	0.815	1.85	0.621	0.982	2.87	0.921	0.963	0.704	0.872	0.779	0.606
MFNPCYGLFEF [NEDD4L_Y680_Y679C_YF]	0.558	0.929	0.67	4.79	0.766	4.76	0.917	0.65	1.27	2.85	1.33	0.633	1.07	2.27	4.92	0.578
MGHVNYGAFIN [GLB1_Y485_R482H_YF]	0.804	0.882	0.44	0.706	0.505	0.406	0.565	0.615	0.756	0.391	0.611	0.565	0.72	0.609	0.672	0.449
MHDKEYFSVHN [MET_Y1234_Y1230H_YF]	0.834	1.12	0.683	0.487	0.969	0.497	0.737	0.619	0.741	0.449	0.954	0.554	0.921	0.494	0.53	1.4
MICSAYALGGL [CPS1_Y590_R587C]	0.506	0.764	0.552	0.779	0.844	0.551	0.811	0.601	1.05	0.571	0.961	0.623	0.983	0.72	0.659	0.635
MIRSTYALGGL [CPS1_Y590_A589T]	0.626	0.699	0.439	0.546	0.486	0.489	0.498	0.521	0.693	0.488	0.63	0.4	0.73	0.487	0.466	0.774
MKGDFYRFLAE [YWHAG_Y131_YF]	0.36	0.706	0.479	0.448	0.49	0.426	0.596	0.494	0.798	0.734	0.803	0.497	0.845	0.349	0.429	0.448
MKGEYYRYLAE [YWHAG_Y131_D129E]	1.12	0.922	0.676	0.795	2.92	0.429	0.82	0.779	1.07	0.471	1.12	0.685	1.42	0.732	0.606	4.14
MKVPVYETPAG [PGM5_Y358]	0.698	0.851	1.28	5.2	0.649	11.6	18.2	18.2	1.08	5.35	1.57	11.7	0.903	7.86	6.27	0.492
MLEVPYVDRNS [F10_Y384]	0.708	0.724	0.457	0.395	0.643	0.434	0.611	0.494	0.89	0.317	0.847	0.499	0.789	0.453	0.382	0.411
MMVGAYSSLEG [ECPAS_Y470_T472S]	0.77	0.82	7.6	0.671	0.515	0.528	0.785	0.434	0.754	1.97	0.631	0.469	0.563	0.832	0.533	0.514
